Experiments:
HeLa Kyoto [1] = test: solubility in G1/S (NP-40 vs SDS abundance) (log2 ratio); higher = more soluble; settings: cell cycle stage: G1/S
HeLa Kyoto [2] = test: melting temperature (median over replicates), in situ; higher = more thermally stable
HeLa Kyoto [3] = test: solubility change mitosis vs G1/S (difference of NP-40 vs SDS log2 ratios) (log2 ratio difference); higher = more soluble in mitosis
HeLa Kyoto [4] = test: thermal stability score vs G1/S (z-score of summed log2 fold changes over temperatures); higher = more thermally stable than in G1/S
[5] = cell cycle stage: early G1 (4.5 h after nocodazole release)
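Throughout, for melting temperature (median over replicates), in situ: HeLa Kyoto cells synchronized by double thymidine or nocodazole block, proteins quantified by TMT10plex mass spectrometry, three independent biological replicates.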
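Throughout, for solubility change mitosis vs G1/S (difference of NP-40 vs SDS log2 ratios): synchronized HeLa Kyoto cells (double thymidine block for G1/S, nocodazole release for mitosis), protein amounts in NP-40 versus SDS lysates quantified by mass spectrometry, three biological replicates.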
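Throughout, for solubility in G1/S (NP-40 vs SDS abundance): HeLa Kyoto cells arrested at G1/S by double thymidine block, proteins quantified by TMT10plex mass spectrometry in mild NP-40 versus SDS extracts, three biological replicates.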
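Throughout, for thermal stability score vs G1/S (z-score of summed log2 fold changes over temperatures): synchronized HeLa Kyoto cells, proteins quantified by TMT10plex mass spectrometry, three biological replicates, mitosis taken 0.5 h after nocodazole release, G1/S directly after double thymidine block.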

Row | Substance | solubility in G1/S (log2) (HeLa Kyoto [1]) | melting temperature (HeLa Kyoto [2]; cell cycle stage: G1/S) | melting temperature (HeLa Kyoto [2]; cell cycle stage: mitosis) | solubility change mitosis (log2) (HeLa Kyoto [3]) | thermal stability score (HeLa Kyoto [4]; [5]) | thermal stability score (HeLa Kyoto [4]; cell cycle stage: mitosis)
1 | MPAERPAGSGGSEAPAMVEQLDTAVITPAMLEEEEQLEAAGLERERKMLEKARMSWDRESTEIRYRRLQHLLEKSNIYSKFLLTKMEQQQLEEQKKKEKLERKKESLKVKKGKNSIDASEEKPVMRKKRGREDESYNISEVMSKEEILSVAKKNKKENEDENSSSTNLCVEDLQKNKDSNSIIKDRLSETVRQNTKFFFDPVRKCNGQPVPFQQPKHFTGGVMRWYQVEGMEWLRMLWENGINGILADEMGLGKTVQCIATIALMIQRGVPGPFLVCGPLSTLPNWMAEFKRFTPDIPTMLYHGTQEERQKLVRNIYKRKGTLQIHPVVITSFEIAMRDRNALQHCYWKYLIVDEGHRIKNMKCRLIRELKRFNADNKLLLTGTPLQNNLSELWSLLNFLLPDVFDDLKSFESWFDITSLSETAEDIIAKEREQNVLHMLHQILTPFLLRRLKSDVALEVPPKREVVVYAPLSKKQEIFYTAIVNRTIANMFGSSEKETIELSPTGRPKRRTRKSINYSKIDDFPNELEKLISQIQPEVDRERAVVEVNIPVESEVNLKLQNIMMLLRKCCNHPYLIEYPIDPVTQEFKIDEELVTNSGKFLILDRMLPELKKRGHKVLLFSQMTSMLDILMDYCHLRDFNFSRLDGSMSYSEREKNMHSFNTDPEVFIFLVSTRAGGLGINLTAADTVIIYDSDWNPQSDLQAQDRCHRIGQTKPVVVYRLVTANTIDQKIVERAAAKRKLEKLIIHKNHFKGGQSGLNLSKNFLDPKELMELLKSRDYEREIKGSREKVISDKDLELLLDRSDLIDQMNASGPIKEKMGIFKILENSEDSSPECLF [HELLS] | -0.204 | 46.2 °C | 48.2 °C | 0.252 | 1.77 | 3.02
2 | MAALYRPGLRLNWHGLSPLGWPSCRSIQTLRVLSGDLGQLPTGIRDFVEHSARLCQPEGIHICDGTEAENTATLTLLEQQGLIRKLPKYNNCWLARTDPKDVARVESKTVIVTPSQRDTVPLPPGGARGQLGNWMSPADFQRAVDERFPGCMQGRTMYVLPFSMGPVGSPLSRIGVQLTDSAYVVASMRIMTRLGTPVLQALGDGDFVKCLHSVGQPLTGQGEPVSQWPCNPEKTLIGHVPDQREIISFGSGYGGNSLLGKKCFALRIASRLARDEGWLAEHMLILGITSPAGKKRYVAAAFPSACGKTNLAMMRPALPGWKVECVGDDIAWMRFDSEGRLRAINPENGFFGVAPGTSATTNPNAMATIQSNTIFTNVAETSDGGVYWEGIDQPLPPGVTVTSWLGKPWKPGDKEPCAHPNSRFCAPARQCPIMDPAWEAPEGVPIDAIIFGGRRPKGVPLVYEAFNWRHGVFVGSAMRSESTAAAEHKGKIIMHDPFAMRPFFGYNFGHYLEHWLSMEGRKGAQLPRIFHVNWFRRDEAGHFLWPGFGENARVLDWICRRLEGEDSARETPIGLVPKEGALDLSGLRAIDTTQLFSLPKDFWEQEVRDIRSYLTEQVNQDLPKEVLAELEALERRVHKM [PCK2] | 0.00231 | 52.8 °C | 52.1 °C | -0.0852 | -2.32 | -1.91
3 | MLGIWTLLPLVLTSVARLSSKSVNAQVTDINSKGLELRKTVTTVETQNLEGLHHDGQFCHKPCPPGERKARDCTVNGDEPDCVPCQEGKEYTDKAHFSSKCRRCRLCDEGHGLEVEINCTRTQNTKCRCKPNFFCNSTVCEHCDPCTKCEHGIIKECTLTSNTKCKEEGSRSNLGWLCLLLLPIPLIVWVKRKEVQKTCRKHRKENQGSHESPTLNPETVAINLSDVDLSKYITTIAGVMTLSQVKGFVRKNGVNEAKIDEIKNDNVQDTAEQKVQLLRNWHQLHGKKEAYDTLIKDLKKANLCTLAEKIQTIILKDITSDSENSNFRNEIQSLV [FAS] | 0.525 | 54.1 °C | 54.4 °C | 0.0304 | -0.244 | -1.13
4 | FAM208A | -0.847 | 49.7 °C | 50.2 °C | 0.524 | 0.605 | 0.529
5 | MPGSLPLNAEACWPKDVGIVALEIYFPSQYVDQAELEKYDGVDAGKYTIGLGQAKMGFCTDREDINSLCMTVVQNLMERNNLSYDCIGRLEVGTETIIDKSKSVKTNLMQLFEESGNTDIEGIDTTNACYGGTAAVFNAVNWIESSSWDGRYALVVAGDIAVYATGNARPTGGVGAVALLIGPNAPLIFERGLRGTHMQHAYDFYKPDMLSEYPIVDGKLSIQCYLSALDRCYSVYCKKIHAQWQKEGNDKDFTLNDFGFMIFHSPYCKLVQKSLARMLLNDFLNDQNRDKNSIYSGLEAFGDVKLEDTYFDRDVEKAFMKASSELFSQKTKASLLVSNQNGNMYTSSVYGSLASVLAQYSPQQLAGKRIGVFSYGSGLAATLYSLKVTQDATPGSALDKITASLCDLKSRLDSRTGVAPDVFAENMKLREDTHHLVNYIPQGSIDSLFEGTWYLVRVDEKHRRTYARRPTPNDDTLDEGVGLVHSNIATEHIPSPAKKVPRLPATAAEPEAAVISNGEH [HMGCS1] | 0.0526 | 54 °C | 55.2 °C | -0.0813 | -0.19 | 3.42
6 | MSKGTSSDTSLGRVSRAAFPSPTAAEMAEISRIQYEMEYTEGISQRMRVPEKLKVAPPNADLEQGFQEGVPNASVIMQVPERIVVAGNNEDVSFSRPADLDLIQSTPFKPLALKTPPRVLTLSERPLDFLDLERPPTTPQNEEIRAVGRLKRERSMSENAVRQNGQLVRNDSLWHRSDSAPRNKISRFQAPISAPEYTVTPSPQQARVCPPHMLPEDGANLSSARGILSLIQSSTRRAYQQILDVLDENRRPVLRGGSAAATSNPHHDNVRYGISNIDTTIEGTSDDLTVVDAASLRRQIIKLNRRLQLLEEENKERAKREMVMYSITVAFWLLNSWLWFRR [MFF] | 0.532 | 51.6 °C | 52.6 °C | -0.00278 | 0.544 | 1.39
7 | MGLPEPGPLRLLALLLLLLLLLLLQLQHLAAAAADPLLGGQGPAKDCEKDQFQCRNERCIPSVWRCDEDDDCLDHSDEDDCPKKTCADSDFTCDNGHCIHERWKCDGEEECPDGSDESEATCTKQVCPAEKLSCGPTSHKCVPASWRCDGEKDCEGGADEAGCATLCAPHEFQCGNRSCLAAVFVCDGDDDCGDGSDERGCADPACGPREFRCGGDGGGACIPERWVCDRQFDCEDRSDEAAELCGRPGPGATSAPAACATASQFACRSGECVHLGWRCDGDRDCKDKSDEADCPLGTCRGDEFQCGDGTCVLAIKHCNQEQDCPDGSDEAGCLQGLNECLHNNGGCSHICTDLKIGFECTCPAGFQLLDQKTCGDIDECKDPDACSQICVNYKGYFKCECYPGYEMDLLTKNCKAAAGKSPSLIFTNRHEVRRIDLVKRNYSRLIPMLKNVVALDVEVATNRIYWCDLSYRKIYSAYMDKASDPKEQEVLIDEQLHSPEGLAVDWVHKHIYWTDSGNKTISVATVDGGRRRTLFSRNLSEPRAIAVDPLRGFMYWSDWGDQAKIEKSGLNGVDRQTLVSDNIEWPNGITLDLLSQRLYWVDSKLHQLSSIDFSGGNRKTLISSTDFLSHPFGIAVFEDKVFWTDLENEAIFSANRLNGLEISILAENLNNPHDIVIFHELKQPRAPDACELSVQPNGGCEYLCLPAPQISSHSPKYTCACPDTMWLGPDMKRCYRAPQSTSTTTLASTMTRTVPATTRAPGTTVHRSTYQNHSTETPSLTAAVPSSVSVPRAPSISPSTLSPATSNHSQHYANEDSKMGSTVTAAVIGIIVPIVVIALLCMSGYLIWRNWKRKNTKSMNFDNPVYRKTTEEEDEDELHIGRTAQIGHVYPAAISSFDRPLWAEPCLGETREPEDPAPALKELFVLPGEPRSQLHQLPKNPLSELPVVKSKRVALSLEDDGLP [LRP8] | 0.0581 | 55.6 °C | 56.7 °C | -0.0602 | -3.43 | -3.53
8 | MEQLSDEEIDHGAEEDSDKEDQDLDKMFGAWLGELDKLTQSLDSDKPMEPVKRSPLRQETNMANFSYRFSIYNLNEALNQGETVDLDALMADLCSIEQELSSIGSGNSKRQITETKATQKLPVSRHTLKHGTLKGLSSSSNRIAKPSHASYSLDDVTAQLEQASLSMDEAAQQSVLEDTKPLVTNQHRRTASAGTVSDAEVHSISNSSHSSITSAASSMDSLDIDKVTRPQELDLTHQGQPITEEEQAAKLKAEKIRVALEKIKEAQVKKLVIRVHMSDDSSKTMMVDERQTVRQVLDNLMDKSHCGYSLDWSLVETVSELQMERIFEDHENLVENLLNWTRDSQNKLIFMERIEKYALFKNPQNYLLGKKETAEMADRNKEVLLEECFCGSSVTVPEIEGVLWLKDDGKKSWKKRYFLLRASGIYYVPKGKAKVSRDLVCFLQLDHVNVYYGQDYRNKYKAPTDYCLVLKHPQIQKKSQYIKYLCCDDVRTLHQWVNGIRIAKYGKQLYMNYQEALKRTESAYDWTSLSSSSIKSGSSSSSIPESQSNHSNQSDSGVSDTQPAGHVRSQSIVSSVFSEAWKRGTQLEESSKARMESMNRPYTSLVPPLSPQPKIVTPYTASQPSPPLPPPPPPPPPPPPPPPPPPPPLPSQSAPSAGSAAPMFVKYSTITRLQNASQHSGALFKPPTPPVMQSQSVKPQILVPPNGVVPPPPPPPPPPTPGSAMAQLKPAPCAPSLPQFSAPPPPLKIHQVQHITQVAPPTPPPPPPIPAPLPPQAPPKPLVTIPAPTSTKTVAPVVTQAAPPTPTPPVPPAKKQPAFPASYIPPSPPTPPVPVPPPTLPKQQSFCAKPPPSPLSPVPSVVKQIASQFPPPPTPPAMESQPLKPVPANVAPQSPPAVKAKPKWQPSSIPVPSPDFPPPPPESSLVFPPPPPSPVPAPPPPPPPTASPTPDKSGSPGKKTSKTSSPGGKKPPPTPQRNSSIKSSSGAEHPEPKRPSVDSLVSKFTPPAESGSPSKETLPPPAAPPKPGKLNLSGVNLPGVLQQGCVSAKAPVLSGRGKDSVVEFPSPPSDSDFPPPPPETELPLPPIEIPAVFSGNTSPKVAVVNPQPQQWSKMSVKKAPPPTRPKRNDSTRLTQAEISEQPTMATVVPQVPTSPKSSLSVQPGFLADLNRTLQRKSITRHGSLSSRMSRAEPTATMDDMALPPPPPELLSDQQKAGYGGSHISGYATLRRGPPPAPPKRDQNTKLSRDW [RAPH1] | 0.0855 | 52 °C | 52.3 °C | -0.187 | -1.35 | -0.404
9 | MADEIAKAQVARPGGDTIFGKIIRKEIPAKIIFEDDRCLAFHDISPQAPTHFLVIPKKHISQISVAEDDDESLLGHLMIVGKKCAADLGLNKGYRMVVNEGSDGGQSVYHVHLHVLGGRQMHWPPG [HINT1] | 0.25 | 56.4 °C | 56 °C | 0.17 | -5.39 | -4.12
10 | MLNVPSQSFPAPRSQQRVASGGRSKVPLKQGRSLMDWIRLTKSGKDLTGLKGRLIEVTEEELKKHNKKDDCWICIRGFVYNVSPYMEYHPGGEDELMRAAGSDGTELFDQVHRWVNYESMLKECLVGRMAIKPAVLKDYREEEKKVLNGMLPKSQVTDTLAKEGPSYPSYDWFQTDSLVTIAIYTKQKDINLDSIIVDHQNDSFRAETIIKDCLYLIHIGLSHEVQEDFSVRVVESVGKIEIVLQKKENTSWDFLGHPLKNHNSLIPRKDTGLYYRKCQLISKEDVTHDTRLFCLMLPPSTHLQVPIGQHVYLKLPITGTEIVKPYTPVSGSLLSEFKEPVLPNNKYIYFLIKIYPTGLFTPELDRLQIGDFVSVSSPEGNFKISKFQELEDLFLLAAGTGFTPMVKILNYALTDIPSLRKVKLMFFNKTEDDIIWRSQLEKLAFKDKRLDVEFVLSAPISEWNGKQGHISPALLSEFLKRNLDKSKVLVCICGPVPFTEQGVRLLHDLNFSKNEIHSFTA [CYB5R4] | 0.0176 | 53.6 °C | 53.7 °C | -0.0937 | -0.0239 | -0.629

— the supplement of paper PMC5998384
